The values below come from the supplement of paper PMC9170038.

In this series the test system is MS2 coat protein. Kind of series: apparent KD of MS2 coat protein; designed switch direction (-1 OFF switch, 1 ON switch): -1; higher = weaker reporter binding. In short, it runs like this: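 Designed RNA switches with common flanks were made on Illumina chips by stalled E. coli RNA polymerase. Titration with SNAP-549-labelled MS2 coat protein doubled from 0.7 or 1.5 nM up to 3 µM. Apparent KD is each design's median over clusters after curve-fitting normalised fluorescence.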

Where [1] appears, read: input ligand: microRNA oligo, concentration not stated.
Setting [2] is: Eterna round: R95, input ligand: FMN 200 uM.
Where [3] appears, read: Eterna round: R95, input ligand: microRNA oligo, concentration not stated.
Setting [4] is: Eterna round: R95, input ligand: none.

Regarding “UAUCUACAUGAGGAUCACCCAUGUGAGGAUAUCAAAACCAGAGCGGAUCUCUGGCCCAUGAGAAGGUACAUGGU [ElNandoxlusion 5 - Jieux - Exclusion 1] (Eterna round: R97, puzzle: Exclusion 1)”, the “apparent KD of MS2 coat protein” value reads like this: (input ligand: FMN 200 uM) 59.2 nM; (input ligand: none) 20 nM.

In the case of “UGAGUGCUGCGAGGAUAUACAUGAGGAUCACCCAUGUUUUCGUGUGAGGCUUUGCCUCACACGAUGUAGAAGGCGCAGUACUCU [JL ENG2 1.13] (Eterna round: R96, puzzle: Exclusion NG 2)”, the “apparent KD of MS2 coat protein” value is, setting by setting: (input ligand: FMN 200 uM) 11.5 nM; under setting [1], 8.16 nM; (input ligand: none) 12.8 nM.

For “UCUUUCUUUGUGAGGAUAUGCCCAAAUAAAAGCGGGCAGAAGGCACAUGAGGAUCACCCAUGUCCUGCGGUUUU [salish99_bmx4_r4_147] (Eterna round: R97, puzzle: Brourd's mod of Exclusion 4)”, the “apparent KD of MS2 coat protein” value (input ligand: FMN 200 uM) was 174 nM and the “apparent KD of MS2 coat protein” value (input ligand: none) is 16.5 nM.

Consider “UGAGCUCUAGUAGGAUAUGUCGGAUAUGUUGUUGAGGUUCACCCAACGACGUCAAUGACAGAAGGACAGAAGGACUCCUGCUCU [pwkr exNG2 2xFMN 1xF5.7] (Eterna round: R96, puzzle: Exclusion NG 2)”, for which the “apparent KD of MS2 coat protein” value (input ligand: FMN 200 uM) was 111 nM, the “apparent KD of MS2 coat protein” value under setting [1] amounted to 77 nM and the “apparent KD of MS2 coat protein” value (input ligand: none) was 315 nM.

Take “UACAUGAGGAUCACCCAUGUUUUGUCGUGUAUGGUAUUUAUCUAGGAUAUCGUUUUAUUUAACCACGAGAAGGAGAGUAUCAAU [MOD2 Solution 21 by JMF] (Eterna round: R96, puzzle: Exclusion NG 3)”: the “apparent KD of MS2 coat protein” value under setting [1] was determined as 33.9 nM and the “apparent KD of MS2 coat protein” value (input ligand: none) came out at 39.7 nM.

Turning to “AGUGUGUGGCAGGAUAUUCUAAUGAUUAGGAGGGAAGAAGGGUCUACAUGAGGAUCACCCAUGUAAGCGGUUGA [Ex6 #39] (Eterna round: R97, puzzle: Exclusion 6)”, the “apparent KD of MS2 coat protein” value (input ligand: FMN 200 uM) was 135 nM and the “apparent KD of MS2 coat protein” value (input ligand: none) was determined as 38.3 nM.

As to “UUUAAUUUUUUUUUUUUACAAGCUUUUUGCUCGUCUUAUACAUGAGGAUCACCCAUGUGGGUGGAAAAUAAAUUAUC [JMF 92] (Eterna round: R96, puzzle: Sensor v3, turn-off variant 2)”, the “apparent KD of MS2 coat protein” value amounted to 583 nM (input ligand: FMN 200 uM), 232 nM under setting [1] and 472 nM (input ligand: none).

As to “UGUAUACAUGAGGAUCACCCAUGUAAGGAUAUACAUCAGAUCGACACCGGACUGGCCCGUAGAAGGUGCGUGGA [Eternabot (L2) Solution 67] (Eterna round: R97, puzzle: Exclusion 1)”, the “apparent KD of MS2 coat protein” value reads like this: (input ligand: FMN 200 uM) 24.9 nM; (input ligand: none) 24 nM.

In the case of “UAAGAGUGAGGAUAUACGUCGCUGGUCCAGAUGGACGCAUGACAUGAGGAUCACCCAUGUAGAAGGCACAAAAC [Enxela Mod 3 - Jieux - Exclusion 2] (Eterna round: R97, puzzle: Exclusion 2)”, the “apparent KD of MS2 coat protein” value (input ligand: FMN 200 uM) is 189 nM and the “apparent KD of MS2 coat protein” value (input ligand: none) was 32.8 nM.

Turning to “AGCUUUUUGUUUUUGGGUGACAUGAGGAUCACCCAUGUCUUAUGGGCCCAAUAAUAAUAAAAUAAAAGGGACCCACG [-20.8, -41.27, a 31%] (Eterna round: R97, puzzle: Sensor, turn-off variant 1)”, the “apparent KD of MS2 coat protein” value (input ligand: FMN 200 uM) was determined as 457 nM and the “apparent KD of MS2 coat protein” value (input ligand: none) worked out at 208 nM.

As for “UUUAAUUUUUUUUUUUUACAAGCUUUUUGCUCGUCUUAUACAUGAGGAUCACCCAUGUAAGUGGGAAGUAAAUUAUC [JMF 54] (puzzle: Sensor v3, turn-off variant 2)”, the “apparent KD of MS2 coat protein” value runs as follows: under setting [2], 48.3 nM; under setting [3], 184 nM; under setting [4], 83.8 nM.

For “AAUAACAAGUAAGGUCCUAACAUGAGGAUCACCCAUGUGCUCGUCUUAUAAAGUACUAUCACGAAAGUGAUAGUACA [Sensor 3, v1 - 52] (puzzle: Sensor v3, turn-off variant 1)”, the “apparent KD of MS2 coat protein” value was found to be 52.5 nM under setting [2], 414 nM under setting [3] and 52.1 nM under setting [4].

As for “UUGGUUGUGGUAGGAUAUCCGUUGGAAACCUUCGGAGAAGGACCACAGUCACUGGGUCUUUGUCUGGUGGACGGUGAAAACCGU [pwkr exNG1 F6.22] (Eterna round: R96, puzzle: Exclusion NG 1)”, the “apparent KD of MS2 coat protein” value by setting is: (input ligand: FMN 200 uM) 138 nM; under setting [1], 498 nM; (input ligand: none) 730 nM.

For “GUCUGAGCAGGAUAUACAUGAGGAUCACCCAUGUUGGUUCAGCGACGAUAGUCGCAAUGUAGAAGGGCUCAGAC [E3/9-D1] (Eterna round: R97, puzzle: Exclusion 3)”, the “apparent KD of MS2 coat protein” value by setting is: (input ligand: FMN 200 uM) 73.5 nM; (input ligand: none) 258 nM.

Turning to “GACUUCUCUGAGGAUAUUGCAUCAUACGAUAAAUAAGAAGGCAGAACAUGAGGAUCACCCAUGUGGGUUUUAAG [Bingo-Bango-33] (Eterna round: R97, puzzle: Exclusion 6)”, the “apparent KD of MS2 coat protein” value came to 137 nM (input ligand: FMN 200 uM) and 104 nM (input ligand: none).

Regarding “AGUACUAACACGAAAGUGUUAGUACUAUAAGCUUGUGUAACAUGAGGAUCACCCAUGUCCUCAUAAGCUCGUCUUAU [Mat - Sensor v3 - Turn-off var 2 - D100] (puzzle: Sensor v3, turn-off variant 2)”, the “apparent KD of MS2 coat protein” value is, setting by setting: under setting [2], 58.3 nM; under setting [3], 131 nM; under setting [4], 61.2 nM.

Regarding “GAAAAGGUAGAGGAUAUUUCAGGUCAAAGCUGCAAAGAAGGCUGCACAUGAGGAUCACCCAUGUGGUCUUAAAA [Mod of Quesina 7 - Jieux - Exclusion 6] (Eterna round: R97, puzzle: Exclusion 6)”, the “apparent KD of MS2 coat protein” value by setting is: (input ligand: FMN 200 uM) 90.4 nM; (input ligand: none) 25.7 nM.

As to “AAAUACAAGUAAAGAUUCUACAUGAGGAUCACCCAUGUGCUCGUCUUAUAAAGUACUAUCACGAAAGUGAUAGUACA [Sensor 3, v1 - 26] (puzzle: Sensor v3, turn-off variant 1)”, the “apparent KD of MS2 coat protein” value under setting [2] was found to be 17 nM, the “apparent KD of MS2 coat protein” value under setting [3] was 188 nM and the “apparent KD of MS2 coat protein” value under setting [4] is 15 nM.

For the sequence “UUAAUUCUGAUUCUUGAAAUACAUGAGGAUCACCCAUGUUCACAGGAUAUUGAUUAUGUUAGUAACAAGAAGGGUGUAACAUAU [JR_ExcNG3_Sub037] (Eterna round: R96, puzzle: Exclusion NG 3)”, the “apparent KD of MS2 coat protein” value under setting [1] is 26.4 nM.

On to “UUUAAUUUUUUUUUUUUACAAGCUUUUUGCUCGUCUUAUACAUGAGGAUCACCCAUGUAAAUGGGAAGUAAAUUAUC [JMF 50] (puzzle: Sensor v3, turn-off variant 2)”, for which the “apparent KD of MS2 coat protein” value is, setting by setting: under setting [2], 59.5 nM; under setting [3], 207 nM; under setting [4], 93.1 nM.

For the sequence “ACAUGAGGAUCACCCAUGUAAUGAUGGGUACUAUAUUAUUCGUAGGAUAUCGUUGUUAGUUUGUGCGAGAAGGACGAUUGCUUU [JR_ExcNG3_Sub057] (Eterna round: R96, puzzle: Exclusion NG 3)”, the “apparent KD of MS2 coat protein” value under setting [1] came out at 733 nM.

Consider “GGUUGGCGAGGAUAUACAUGAGGAUCACCCAUGUGAAAGAAAAAAGUGAGGAAGAAAAGUAGAAGGCGCUGACG [salish99_ex3_r3_016] (puzzle: Exclusion 3)”, for which the “apparent KD of MS2 coat protein” value runs as follows: under setting [2], 5.86 nM; under setting [3], 8.93 nM; under setting [4], 14.4 nM.
